Test system: MS2 coat protein
Experiment: apparent KD of MS2 coat protein; higher = weaker reporter binding
Conditions: Eterna round: R107
Summary of the method: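 For every design, apparent KD is the median of normalised binding-curve fits from its clusters. The RNA switches were transcribed on-chip from Illumina sequencing clusters and titrated with SNAP-549-labelled MS2 coat protein (twofold steps, 0.7 or 1.5 nM to 3 µM; 0.8–1.5 h to 10–20 min per step). Titrations used 100 mM Tris-HCl pH 7.5, 80 mM KCl, 4 mM MgCl2, without or with constant ligand.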

[1] = input ligand: theophylline 20 uM
[2] = input ligand: theophylline 2 mM
[3] = input ligand: tryptophan 2.4 mM

Sequence	apparent KD of MS2 coat protein (input ligand: arginine 13.2 mM)	apparent KD of MS2 coat protein (input ligand: none)	apparent KD of MS2 coat protein [1]	apparent KD of MS2 coat protein [2]	apparent KD of MS2 coat protein [3]
UGCCUAGACGUGGAUUACCCGUGUACCGAAGGAGCGCCCGAAAGGGCAGGUAGGUCGCGGAGGACAUGAGGAUCACCCAUGUUUA	31.9 nM	201 nM	151 nM	431 nM	175 nM
UGCGAUGAACCUGAUACCAGAUGUAUUUGCUCCUCGGACAACAUGAGGAUCACCCAUGUCAUCCCUUGGCAGCAGGAGCGAAAGC [theeternabot_exclusion_MS2_Theo_B_21]	12.8 nM	–	14.3 nM	–	11.4 nM
UGGCGAGAAGGAAGGAGCGUCAGCUGAGUCACAUGAGGAUCACCCAUGUAGCACAUAGUGUGACAGGUAGGUCGCCUUCUGCCCU [SS-ArgB17]	13.5 nM	10.3 nM	15.4 nM	10.8 nM	9.41 nM
UGGUACAUGAGGAUCACCCAUGUGCCGGAUACCAGAGAGCCGGCUCUCCCUUGGCAGCUGGCGCGACAUGAGGAUCACCCAUGUG [Exclusion Theophylline A GF18]	18.1 nM	–	32.2 nM	–	24.6 nM
UGGUACAUGGCGGCCGCCACUGGGUUGAAUACCUGAGGAUCACCCUGGUAAAACGCGAAAGCGACUAGGACCGGGUCAUGUACCU	98.8 nM	148 nM	162 nM	385 nM	44.5 nM
UGGUACUAGGCGGCCGCCACUGGGUGAUACAUGAGGAUCACCCAUGUUUAAUGCCGAGAGGCAACCAGGACCGGGCCUAGUACAU	139 nM	327 nM	366 nM	473 nM	19.5 nM
UGGUCCGGCGGAAGGAGCGACAUGAGGAUCACCCAUGUCUCCCGUUAUGGGAGUUCUUUAGGUCAGGUAGGUCGCCGGCGGGUCA [#1 Exclusion - Arginine B Attempt #11 (Inspired by Omei)]	196 nM	51.6 nM	80.6 nM	221 nM	62.9 nM
UGGUGCCCUGUAUACAUUGUAAUCCUAAUGCGAGGACCGGUACGGCCGCCACUCGUUGCGGAACAUGAGGAUCACCCAUGUAACA [theeternabot_exclusion_MS2_Trp_A_21]	17 nM	–	26.2 nM	32 nM	–
UGGUGUAGGGUAAAUAGGCUGAGUACAGAAGGAGCGCGAAUAAACGCAGGUAGGUCGCUGGACUCCACAUGAGGAUCACCCAUGU [Same State Arginine A GF 28]	35.5 nM	28.4 nM	34.1 nM	23.3 nM	36.4 nM
UGGUUUGUGAUGGAUACCAGCAGAGAAAACGUUUAUCCUAACAUGAGGAUCACCCAUGUAUGCCCUUGGCAGCUGUUGUGGGCUG [8.T]	31.9 nM	–	49.5 nM	–	30.4 nM
UGUAACAUGAGGAUCACCCAUGUAAGUGAUACCAGAUAAGUAGUAGUCCCUUGGCAGCAUAUUGGGAAAGUGUAUAGUCUAUACG [Same State - Theophylline A (Freestyle 5)]	50 nM	–	75.3 nM	–	46.4 nM
UGUAACAUGAGGAUCACCCAUGUAAGUGAUACCAGAUAAGUAGUAGUCCCUUGGCAGCAUAUUGGGAAAGUGUAUAGUCUAUAUU [Same State - Theophylline A (Freestyle 3)]	43.6 nM	–	74.9 nM	–	51.1 nM
UGUAACAUGAGGAUCACCCAUGUAAGUGAUACCAGAUAAGUAGUAGUCCCUUGGCAGCAUAUUGGGAAAGUGUAUAGUGUAUAUG [Same State - Theophylline A (Freestyle 4)]	48.9 nM	–	72.3 nM	–	58.4 nM
UGUAACAUGAGGAUCACCCAUGUGAGUGAUACCAGACUAGUGUUAGUCCCUUGGCAGCACGCUGGACAAAUGUGUAGUCUAUGCG [Same State - Theophylline A (Freestyle 20)]	40.2 nM	72.7 nM	112 nM	62.6 nM	70.5 nM

From the supplement of paper PMC9170038
